{"source": "patent US20220195064A1", "about": "(Memorial Sloan Kettering, published 2022)", "binders": {"B1": {"name": "B10 reformatted to human IgG1 (antibody, V domains shown)", "VH": "EVQLLESGGGLVQPGGSLRLSCAASGFTFSDYQMSWVRQAPGKGLEWVSGIQGGGGSTYYADSVKGRFTISRDNSKNTLYLQMNSLRAEDTAVYYCAREMWRGDYYSGMDVWGQGTTVTVSS", "VL": "not shown", "notes": "Human IgG1; also called 1B10 IgG1; B031_P1_PH1B10 IgG1"}, "B2": {"name": "B031_P1_PH1B10 monoclonal phage prep (scFv displayed on phage) (scFv, V domains shown)", "VH": "B1 VH", "VL": "not shown", "notes": "Tested as an scFv on M13 phage (supernatant or phage prep)"}, "B3": {"name": "B031_P1_PH1C3 monoclonal phage prep (scFv displayed on phage) (scFv, V domains shown)", "VH": "EVQLLESGGGLVQPGGSLRLSCAASGFTFTSYAMSWVRQAPGKGLEWVSGIDGSGGGTNYADSVKGRFTISRDNSKNTLYLQMNSLRAEDTAVYYCARAYYDILTGYPVDGMDVWGQGTTVTVSS", "VL": "not shown", "notes": "Tested as an scFv on M13 phage"}, "B4": {"name": "B031_P1_PH2E8 monoclonal phage prep (scFv displayed on phage) (scFv, V domains shown)", "VH": "EVQLLESGGGLVQPGGSLRLSCAASGFTFSSYAMSWVRQAPGKGLEWVSEIDGEGGYTNYADSVKGRFTISRDNSKNTLYLQMNSLRAEDTAVYYCAREGVDYDILTGYYPYGMDVWGQGTTVTVSS", "VL": "not shown", "notes": "as for B3"}, "B5": {"name": "B10 scFv-Fc fusion, VH-VL orientation (Fc fusion)", "chain": "EVQLLESGGGLVQPGGSLRLSCAASGFTFSDYQMSWVRQAPGKGLEWVSGIQGGGGSTYYADSVKGRFTISRDNSKNTLYLQMNSLRAEDTAVYYCAREMWRGDYYSGMDVWGQGTTVTVSSGGGGSGGGGSGGGSGGGGSDIVMTQSPDSLAVSLGERATINCKSSQSVLDSYNNENNLAWYQQKPGQPPKLLIYWASTRESGVPDRFSGSGSGTDFTLTISSLQAEDVAVYYCQQYTSEPITFGQGTKVEIK", "notes": "also called VH-VL-Fc; not shown: Fc region"}, "B6": {"name": "B031_P1_PH2E4 monoclonal phage prep (scFv displayed on phage) (scFv, V domains shown)", "VH": "EVQLLESGGGLVQPGGSLRLSCAASGFTFTSYYMSWVRQAPGKGLEWVSGISGSGDSTSYADSVKGRFTISRDNSKNTLYLQMNSLRAEDTAVYYCAREAGGDYDSGAFDIWGQGTMVTVSS", "VL": "not shown", "notes": "as for B3"}, "B7": {"name": "B031_P1_PH2A11 monoclonal phage prep (scFv displayed on phage) (scFv, V domains shown)", "VH": "EVQLLESGGGLVQPGGSLRLSCAASGFTFTSTQMSWVRQAPGKGLEWVSEISGYGGSTYYADSVKGRFTISRDNSKNTLYLQMNSLRAEDTAVYYCAKDTEVSGDAFDIWGQGTMVTVSS", "VL": "EIVLTQSPGTLSLSPGERATLSCRASQSVDSSNLAWYQQKPGQAPRLLIYGASSRATGIPDRFSGSGSGTDFTLTISRLEPEDFAVYYCQQYRSWPITFGQGTKVEIK", "notes": "as for B3"}, "B8": {"name": "B10 scFv-Fc fusion, VL-VH orientation (Fc fusion)", "chain": "DIVMTQSPDSLAVSLGERATINCKSSQSVLDSYNNENNLAWYQQKPGQPPKLLIYWASTRESGVPDRFSGSGSGTDFTLTISSLQAEDVAVYYCQQYTSEPITFGQGTKVEIKGGGGSGGGGSGGGSGGGGSEVQLLESGGGLVQPGGSLRLSCAASGFTFSDYQMSWVRQAPGKGLEWVSGIQGGGGSTYYADSVKGRFTISRDNSKNTLYLQMNSLRAEDTAVYYCAREMWRGDYYSGMDVWGQGTTVTVSS", "notes": "also called VL-VH-Fc; not shown: Fc region"}, "B9": {"name": "B10 scFv in the VL-VH orientation (scFv)", "scFv": "B8 chain", "notes": "Soluble scFv; also called VL-VH scFv; 1B10 scFv VL-VH"}, "B10": {"name": "B031_P1_PH1D6 monoclonal phage prep (scFv displayed on phage) (scFv, V domains shown)", "VH": "EVQLLESGGGLVQPGGSLRLSCAASGFTFTDYAMSWVRQAPGKGLEWVSDIDGSGGSTDYADSVKGRFTISRDNSKNTLYLQMNSLRAEDTAVYYCALELGATTVYWGQGTLVTVSS", "VL": "not shown", "notes": "as for B3"}}, "key": {"[1]": {"target": "T1, recombinant soluble human CD371 extracellular domain (His 65-Ala 265) with polyhistidine tag (human, UniProt Q5QGZ9 65-265, biotinylated in the scFv BLI measurements (site not stated))", "T1 construct": "range 65-265; also called soluble CD371; recombinant CD371; not shown: polyhistidine tag", "T1 sequence (looked up)": "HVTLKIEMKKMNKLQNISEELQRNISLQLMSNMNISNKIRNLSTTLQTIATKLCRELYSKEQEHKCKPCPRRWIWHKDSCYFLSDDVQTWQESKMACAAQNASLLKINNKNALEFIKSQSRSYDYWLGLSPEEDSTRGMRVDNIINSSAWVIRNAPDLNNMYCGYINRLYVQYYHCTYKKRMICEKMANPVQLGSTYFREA", "assay": "BLI, IgG captured with anti-Fc antibody, soluble CD371 as analyte", "source_text": "(§1) Affinity measurements of the B10 variants determined by biolayer interferometry by capturing the IgG and Fc fusions with anti-Fc antibody, and using soluble CD371 as analyte. For scFv affinity measurements, biotinylated CD371 was captured with streptavidin, and soluble scFv was used as analyte. […] Consistent with the flow cytometry results, the full IgG and the scFv-Fc fusions bound more strongly than the scFvs (Table 8), presumably due to their bivalent interaction, resulting in an avidity effect. Weak binding of the 1B10 scFv in the VH-VL Orientation was observed but a dissociation constant could not be calculated by any curve fit method."}, "[2]": {"target": "T2, recombinant extracellular domain of murine CD371 (Thr 67-Arg 267) with polyhistidine tag (murine, UniProt Q504P2 67-267)", "T2 construct": "range 67-267; also called mouse homolog of CD371; not shown: polyhistidine tag", "T2 sequence (looked up)": "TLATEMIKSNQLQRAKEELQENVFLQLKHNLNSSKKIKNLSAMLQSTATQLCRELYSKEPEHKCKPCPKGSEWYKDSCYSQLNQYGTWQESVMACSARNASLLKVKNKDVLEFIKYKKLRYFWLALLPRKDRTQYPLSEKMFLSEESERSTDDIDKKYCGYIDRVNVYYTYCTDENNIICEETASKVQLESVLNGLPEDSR", "assay": "phage ELISA, anti-M13 detection", "protocol": "(§2) A proprietary naïve, semi-synthetic scFv phage display library was screened for antibodies that bind to the CD371 protein by using standard solid phase phage display panning techniques. Briefly, recombinant CD371 was immobilized on a polystyrene surface followed by blocking with about 5% milk and incubation with the phage library. Subsequent washing, elution and phage amplification steps were performed to complete each round of biopanning. Three rounds of panning were completed using amplified CD371 binder-enriched phage pools from the previous round of panning as input for subsequent rounds."}, "[3]": {"target": "T1, recombinant soluble human CD371 …", "assay": "BLI, Fc fusion captured with anti-Fc antibody, soluble CD371 as analyte", "source_text": "as §1"}, "[4]": {"target": "T1, recombinant soluble human CD371 …", "assay": "phage ELISA on human CD371, anti-M13 detection", "protocol": "as §2"}, "[5]": {"target": "T1, recombinant soluble human CD371 …", "assay": "BLI, biotinylated CD371 captured with streptavidin, soluble scFv as analyte", "source_text": "as §1"}, "[6]": {"target": "T3, human CD371 on the cell surface (OCI AML cells; HEK293 cells expressing human CD371) (human, UniProt Q5QGZ9 1-265)", "T3 construct": "whole, on cells; The transfected construct is not specified further; also called CD371 cells; CD371+ AML cell line OCI", "T3 sequence (looked up)": "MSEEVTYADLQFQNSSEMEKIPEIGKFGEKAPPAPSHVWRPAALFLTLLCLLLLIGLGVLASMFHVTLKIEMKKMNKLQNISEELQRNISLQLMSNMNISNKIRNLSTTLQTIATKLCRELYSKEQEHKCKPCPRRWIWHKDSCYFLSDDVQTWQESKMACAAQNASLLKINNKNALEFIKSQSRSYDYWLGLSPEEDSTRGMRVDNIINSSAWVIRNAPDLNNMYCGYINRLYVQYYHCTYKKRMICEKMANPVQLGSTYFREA", "assay": "flow cytometry of monoclonal phage prep on HEK293H cells transfected with human CD371 against wild type HEK293H; detection by anti-M13 mAb and PE anti-mouse", "protocol": "Once selected, positive scFv clones are tested for their binding to CD371 (e.g., human CD371) on cell surfaces by flow cytometry. Briefly, phage clones are incubated with HEK293H cells over-expressing CD371. The cells are washed and then incubated with a M13 coat protein mAb. Cells are washed again and labeled with a PE-labeled anti-mouse Fab₂ prior to flow cytometry."}}, "data": [{"binder": "B1", "values": [{"measurement": "Kd", "setting": "[1]", "result": 9.5, "unit": "nM"}, {"measurement": "koff", "setting": "[1]", "result": 0.00153, "unit": "s⁻¹"}, {"measurement": "kon", "setting": "[1]", "result": 160000, "unit": "M⁻¹ s⁻¹"}]}, {"binder": "B2", "values": [{"measurement": "binding result", "setting": "[2]", "result": "no binding"}]}, {"binder": "B3", "values": [{"measurement": "binding result", "setting": "[2]", "result": "no binding"}]}, {"binder": "B4", "values": [{"measurement": "binding result", "setting": "[2]", "result": "no binding"}]}, {"binder": "B5", "values": [{"measurement": "Kd", "setting": "[3]", "result": 4.2, "unit": "nM"}, {"measurement": "koff", "setting": "[3]", "result": 0.000968, "unit": "s⁻¹"}, {"measurement": "kon", "setting": "[3]", "result": 232000, "unit": "M⁻¹ s⁻¹"}]}, {"binder": "B6", "values": [{"measurement": "binding result", "setting": "[2]", "result": "no binding"}, {"measurement": "binding result", "setting": "[4]", "result": "binds"}]}, {"binder": "B7", "values": [{"measurement": "binding result", "setting": "[2]", "result": "no binding"}, {"measurement": "binding result", "setting": "[4]", "result": "binds"}]}, {"binder": "B8", "values": [{"measurement": "Kd", "setting": "[3]", "result": 7, "unit": "nM"}, {"measurement": "koff", "setting": "[3]", "result": 0.00206, "unit": "s⁻¹"}, {"measurement": "kon", "setting": "[3]", "result": 295000, "unit": "M⁻¹ s⁻¹"}]}, {"binder": "B9", "values": [{"measurement": "Kd", "setting": "[5]", "result": 16, "unit": "nM"}, {"measurement": "koff", "setting": "[5]", "result": 0.00952, "unit": "s⁻¹"}, {"measurement": "kon", "setting": "[5]", "result": 599000, "unit": "M⁻¹ s⁻¹"}]}, {"binder": "B10", "values": [{"measurement": "binding result", "setting": "[2]", "result": "no binding"}, {"measurement": "binding result", "setting": "[4]", "result": "binds"}, {"measurement": "binding result", "setting": "[6]", "result": "binds"}]}]}
